From US20250346644A1 (LATTICON SUZHOU BIOPHARMACEUTICALS, published 2025)
Where two headings read alike, the source gives them in different places.

T1: high-affinity IL2R expressed on the surface of CTLL-2 cells
T1 sequence (P01590 whole entry, species assumed, looked up): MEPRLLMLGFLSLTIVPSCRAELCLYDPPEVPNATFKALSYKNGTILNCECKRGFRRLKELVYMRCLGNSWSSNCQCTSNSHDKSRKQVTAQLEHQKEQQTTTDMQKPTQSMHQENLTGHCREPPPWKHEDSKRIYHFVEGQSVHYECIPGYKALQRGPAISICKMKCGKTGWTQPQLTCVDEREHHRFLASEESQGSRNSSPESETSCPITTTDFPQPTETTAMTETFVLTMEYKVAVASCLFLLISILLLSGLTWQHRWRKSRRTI
T1 sequence (P16297 whole entry, species assumed, looked up): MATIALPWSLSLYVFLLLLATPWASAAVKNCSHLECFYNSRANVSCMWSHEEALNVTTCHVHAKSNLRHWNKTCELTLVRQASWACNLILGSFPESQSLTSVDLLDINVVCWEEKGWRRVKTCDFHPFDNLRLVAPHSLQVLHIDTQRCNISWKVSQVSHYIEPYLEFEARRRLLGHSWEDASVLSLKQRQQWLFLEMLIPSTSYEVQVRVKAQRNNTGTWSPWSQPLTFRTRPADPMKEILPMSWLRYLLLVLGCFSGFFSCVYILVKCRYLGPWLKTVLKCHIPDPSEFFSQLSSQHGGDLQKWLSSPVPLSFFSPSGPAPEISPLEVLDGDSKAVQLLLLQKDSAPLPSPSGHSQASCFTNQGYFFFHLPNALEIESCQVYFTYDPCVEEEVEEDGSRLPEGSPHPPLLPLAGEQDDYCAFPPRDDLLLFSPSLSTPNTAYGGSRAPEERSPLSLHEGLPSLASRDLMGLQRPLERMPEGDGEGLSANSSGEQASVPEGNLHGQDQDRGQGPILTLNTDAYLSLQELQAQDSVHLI
T1 sequence (P34902 whole entry, species assumed, looked up): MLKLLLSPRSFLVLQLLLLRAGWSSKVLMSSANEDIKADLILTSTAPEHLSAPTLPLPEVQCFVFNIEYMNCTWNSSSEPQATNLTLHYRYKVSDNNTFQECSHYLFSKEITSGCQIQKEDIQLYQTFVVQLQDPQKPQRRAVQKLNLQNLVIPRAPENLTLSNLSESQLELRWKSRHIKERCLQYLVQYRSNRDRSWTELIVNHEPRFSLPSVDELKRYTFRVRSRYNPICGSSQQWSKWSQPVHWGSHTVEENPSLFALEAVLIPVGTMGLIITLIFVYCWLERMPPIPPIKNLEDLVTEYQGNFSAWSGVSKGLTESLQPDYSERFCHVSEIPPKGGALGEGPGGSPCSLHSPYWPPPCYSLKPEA

T2: hIL2Rβ/γ on CD25-knockout NK-92 cells (human, UniProt P14784 27-551; P31785 23-369)
T2 sequence (looked up) 1: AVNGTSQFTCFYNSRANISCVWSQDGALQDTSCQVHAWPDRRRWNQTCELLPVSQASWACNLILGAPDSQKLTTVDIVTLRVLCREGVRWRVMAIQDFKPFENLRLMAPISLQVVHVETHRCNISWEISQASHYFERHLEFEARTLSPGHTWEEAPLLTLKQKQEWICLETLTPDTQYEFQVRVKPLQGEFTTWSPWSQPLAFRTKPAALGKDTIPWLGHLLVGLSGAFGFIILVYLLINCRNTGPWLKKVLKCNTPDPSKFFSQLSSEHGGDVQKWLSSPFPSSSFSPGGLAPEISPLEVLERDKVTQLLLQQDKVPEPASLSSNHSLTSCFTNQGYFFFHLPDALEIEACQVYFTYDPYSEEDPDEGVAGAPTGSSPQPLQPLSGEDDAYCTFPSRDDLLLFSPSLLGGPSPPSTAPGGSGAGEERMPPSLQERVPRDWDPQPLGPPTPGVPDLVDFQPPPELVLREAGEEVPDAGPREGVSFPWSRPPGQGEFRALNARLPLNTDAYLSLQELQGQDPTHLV
T2 sequence (looked up) 2: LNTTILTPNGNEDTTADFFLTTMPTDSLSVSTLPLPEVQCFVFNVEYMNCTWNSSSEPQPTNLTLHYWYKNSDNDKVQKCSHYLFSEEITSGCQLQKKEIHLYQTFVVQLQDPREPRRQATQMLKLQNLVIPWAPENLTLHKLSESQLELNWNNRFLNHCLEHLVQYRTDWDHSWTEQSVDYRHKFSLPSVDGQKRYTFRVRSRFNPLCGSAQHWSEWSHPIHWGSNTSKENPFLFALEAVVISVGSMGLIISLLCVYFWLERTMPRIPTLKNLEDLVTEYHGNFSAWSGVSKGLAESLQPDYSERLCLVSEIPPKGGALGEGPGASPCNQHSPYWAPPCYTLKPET

T3: hIL2Rα/β/γ complex (human, UniProt P01589 22-213; P14784 27-239; P31785 23-254)
T3 construct: assembled in the BLI assay from bought subunits; also called hIL2Rα/o/γ complex
T3 sequence (looked up) 1: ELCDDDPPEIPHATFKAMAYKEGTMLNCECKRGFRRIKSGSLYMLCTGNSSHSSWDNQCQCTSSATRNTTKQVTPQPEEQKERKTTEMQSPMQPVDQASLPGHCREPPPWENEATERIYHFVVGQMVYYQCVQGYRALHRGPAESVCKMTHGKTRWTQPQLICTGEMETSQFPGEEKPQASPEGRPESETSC
T3 sequence (looked up) 2: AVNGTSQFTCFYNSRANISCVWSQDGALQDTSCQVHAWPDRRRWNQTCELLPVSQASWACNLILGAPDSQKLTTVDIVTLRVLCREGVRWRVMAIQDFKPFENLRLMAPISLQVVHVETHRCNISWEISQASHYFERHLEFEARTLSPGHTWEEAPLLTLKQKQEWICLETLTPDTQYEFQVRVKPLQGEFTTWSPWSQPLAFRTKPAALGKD
T3 sequence (looked up) 3: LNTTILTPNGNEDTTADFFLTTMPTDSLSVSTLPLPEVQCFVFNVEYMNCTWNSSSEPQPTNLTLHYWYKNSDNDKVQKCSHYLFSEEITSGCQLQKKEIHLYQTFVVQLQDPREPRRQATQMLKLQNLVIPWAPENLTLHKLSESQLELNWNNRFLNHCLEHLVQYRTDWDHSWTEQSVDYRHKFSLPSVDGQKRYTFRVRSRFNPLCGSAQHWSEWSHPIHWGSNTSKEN

T4: hIL2Rα (hCD25) (human, UniProt P01589 22-213, limits assumed)
T4 construct: bought recombinant protein; also called hCD25 (Acro); biotin-CD25 (Acro)
T4 sequence (looked up): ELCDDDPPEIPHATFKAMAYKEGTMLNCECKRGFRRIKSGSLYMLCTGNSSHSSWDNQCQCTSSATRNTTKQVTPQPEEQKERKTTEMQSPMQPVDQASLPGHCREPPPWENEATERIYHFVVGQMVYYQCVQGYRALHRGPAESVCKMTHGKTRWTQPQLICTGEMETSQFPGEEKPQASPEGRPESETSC

T5: hIL2Rα/β complex (human, UniProt P01589 22-213; P14784 27-239)
T5 construct: assembled in the BLI assay from bought subunits; also called hIL2Rα/O complex
T5 sequence (looked up) 1: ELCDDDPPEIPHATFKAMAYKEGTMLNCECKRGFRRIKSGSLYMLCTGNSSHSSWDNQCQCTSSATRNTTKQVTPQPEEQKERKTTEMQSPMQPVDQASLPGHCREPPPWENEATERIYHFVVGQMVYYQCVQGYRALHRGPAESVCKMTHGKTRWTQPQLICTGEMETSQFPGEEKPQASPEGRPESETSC
T5 sequence (looked up) 2: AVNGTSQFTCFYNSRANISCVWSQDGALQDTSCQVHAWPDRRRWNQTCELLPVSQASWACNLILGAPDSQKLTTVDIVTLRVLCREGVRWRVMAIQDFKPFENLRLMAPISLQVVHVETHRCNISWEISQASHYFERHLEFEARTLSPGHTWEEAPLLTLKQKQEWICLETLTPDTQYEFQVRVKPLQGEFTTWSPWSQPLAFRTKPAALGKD

T6: FcγRIIa (UniProt P12318 36-218, limits assumed)
T6 sequence (looked up): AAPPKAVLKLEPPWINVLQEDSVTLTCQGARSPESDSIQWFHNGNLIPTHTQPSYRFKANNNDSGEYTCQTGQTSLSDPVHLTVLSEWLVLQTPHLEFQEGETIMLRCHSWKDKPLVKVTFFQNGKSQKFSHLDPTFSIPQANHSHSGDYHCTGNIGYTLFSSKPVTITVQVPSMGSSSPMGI


Legend:
[1] = molecular target: T1, high-affinity IL2R expressed on the …; assay: cell-based or functional assay
[2] = molecular target: T2, hIL2Rβ/γ on CD25-knockout NK-92 cells; assay: cell-based or functional assay
hIL2Rα/β/γ complex = molecular target: T3, hIL2Rα/β/γ complex; assay: BLI (ForteBio): biotin-CD25 on an SA sensor, CD122 step, then sample together with CD132
Procedure: (§1) The specific method was described as follows: biotin-CD25 (Acro) was diluted in 1×PBS to 5 μg/mL and added to a 96-well black-wall plate at 200 μL per well; hIL2Rβ (Acro) was diluted to 5 μg/mL in 1×PBS and also added to the 96-well black-wall plate at 200 μL per well. […] The 96-well black-wall plate containing the testing samples and a SA sensor was uploaded onto the analyzer, and a program was inputted. The SA sensor was firstly immersed into the well with biotin-CD25 (Acro) and then with hIL2Rβ (Acro) till saturation. After that, the sensor was immersed in the testing sample well and the binding signal was recorded in real-time. At the end of each association-dissociation cycle, the sensor was regenerated by immersing in 500 mM phosphate buffer and then started with the next cycle of detection.

[3] = molecular target: T1, high-affinity IL2R expressed on the …; assay: cell-based or functional assay; remark: listed apart in the source
hIL2Rα (hCD25) = molecular target: T4, hIL2Rα (hCD25); assay: BLI (ForteBio): biotin-CD25 on an SA sensor, buffer step, then sample
hIL2Rα/β complex = molecular target: T5, hIL2Rα/β complex; assay: BLI (ForteBio): biotin-CD25 on an SA sensor, CD122 step, then sample together with CD122
Procedure: as §1

FcγRIIa = molecular target: T6, FcγRIIa; assay: BLI (ForteBio), series of concentrations, not labelled on the sheet
FcγRI = FcγRI (UniProt P12314 16-288, limits assumed); assay: as above
Chain of FcγRI (P12314 16-288 limits assumed): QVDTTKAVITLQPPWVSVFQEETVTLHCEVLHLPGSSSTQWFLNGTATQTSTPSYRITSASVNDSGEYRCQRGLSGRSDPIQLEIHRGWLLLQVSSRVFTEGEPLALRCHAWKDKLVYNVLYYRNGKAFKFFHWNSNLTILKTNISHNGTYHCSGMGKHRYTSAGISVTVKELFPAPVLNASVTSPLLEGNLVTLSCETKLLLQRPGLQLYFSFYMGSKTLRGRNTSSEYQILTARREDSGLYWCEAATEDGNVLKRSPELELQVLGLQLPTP

FcγRIIIa-158F = FcγRIIIa-158F (UniProt P08637 17-208, limits assumed); assay: as above
Chain of FcγRIIIa-158F (P08637 17-208 limits assumed): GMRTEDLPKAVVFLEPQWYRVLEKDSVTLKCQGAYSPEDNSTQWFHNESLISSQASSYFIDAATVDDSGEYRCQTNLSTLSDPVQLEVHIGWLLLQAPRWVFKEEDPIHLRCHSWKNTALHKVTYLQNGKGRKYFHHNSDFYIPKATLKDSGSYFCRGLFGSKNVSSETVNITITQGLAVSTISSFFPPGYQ

Activity in Promoting CTLL-2 Cell Proliferation (EC50, nM) [1] | Activity in Promoting NK-92 (CD25-KO) Cell Proliferation (EC50, nM) [2] | binding result (hIL2Rα/β/γ complex) | Activity in Promoting CTLL-2 Cell Proliferation (EC50, nM) [3] | binding result (hIL2Rα (hCD25)) | binding result (hIL2Rα/β complex) | Binder | binding result (FcγRIIa) | binding result (FcγRI) | binding result (FcγRIIIa-158F)
9.17 nM | 0.065 nM | no binding | 11.2 nM | no binding | no binding | K2G11-Cy05 (other, Engineered disulfide between chain 1 Cys99 (IL-2 T102C) and chain 2 Cys67 (S67C), as in Table 32 (LC: C67-HC: C99)., hIL2-DM (Δ3, C125L) fused to the heavy chain of K2G11, disulfide IL:102-L:67) SSSTKKTQLQLEHLLLDLQMILNGINNYKNPKLTRMLTFKFYMPKKATELKHLQCLEEELGPLEEVLNLAQSKNFHLRPRDLISNIRVIVLELKGSETCFMCEYADETATIVEFLNRWITFLQSIISTLTGGGGSGGGGSGGGGSGGGGSQVQLVQSGAEVKKPGATVKISCKVSGDTITAYYMHWVRQAPGQGLEWIGRIDPDDDSTKYAENFKGRVTITADTSTDTAYMELSSLRSEDTAVYYCTTITFLYSRELRWFAYWGQGTLVTVSSASTKGPSVFPLAPSSKSTSGGTAALGCLVKDYFPEPVTVSWNSGALTSGVHTFPAVLQSSGLYSLSSVVTVPSSSLGTQTYICNVDHKPSNTKVDKRVEPKSCDKTHTCPPCPAPEFEGGPSVFLFPPKPKDTLMISRTPEVTCVVVDVSHEDPEVQFNWYVDGVEVHNAKTKPREEQYNSTYRVVSVLTVLHQDWLNGKEYKCKVSNKALPASIEKTISKAKGQPREPQVYTLPPSRDELTKNQVSLTCLVKGFYPSDIAVEWESNGQPENNYKTTPPVLDSDGSFFLYSKLTVDKSRWQEGNVFSCSVMHEALHNHYTQKSLSLSPGK VL: DIVLTQSPATLSLSPGERATLSCQASQYISNYLSWYQQKPGQAPRLLIYSATSLASGIPARFSGSRCGTDFTLTISSLEPEDFAVYYCLQHYSTPYTFGQGTKLEIK |  |  | 
 |  |  |  |  |  | K2G11-pITM (antibody, K2G11 with pI (N203D/K274Q/Q419E) and TM (L234F/L235E/P331S) mutations, EU numbering, in the hIgG1 heavy chain constant region; also called humanized anti-IL-2 antibody K2G11-pITM; copies: 2 + 2) VH: QVQLVQSGAEVKKPGATVKISCKVSGDTITAYYMHWVRQAPGQGLEWIGRIDPDDDSTKYAENFKGRVTITADTSTDTAYMELSSLRSEDTAVYYCTTITFLYSRELRWFAYWGQGTLVTVSSASTKGPSVFPLAPSSKSTSGGTAALGCLVKDYFPEPVTVSWNSGALTSGVHTFPAVLQSSGLYSLSSVVTVPSSSLGTQTYICNVDHKPSNTKVDKRVEPKSCDKTHTCPPCPAPEFEGGPSVFLFPPKPKDTLMISRTPEVTCVVVDVSHEDPEVQFNWYVDGVEVHNAKTKPREEQYNSTYRVVSVLTVLHQDWLNGKEYKCKVSNKALPASIEKTISKAKGQPREPQVYTLPPSRDELTKNQVSLTCLVKGFYPSDIAVEWESNGQPENNYKTTPPVLDSDGSFFLYSKLTVDKSRWQEGNVFSCSVMHEALHNHYTQKSLSLSPGK VL: DIVLTQSPATLSLSPGERATLSCQASQYISNYLSWYQQKPGQAPRLLIYSATSLASGIPARFSGSRSGTDFTLTISSLEPEDFAVYYCLQHYSTPYTFGQGTKLEIK | no binding (tested: not printed on the sheet) | no binding (tested: not printed on the sheet) | no binding (tested: not printed on the sheet)
